Source: patent publication US20110217282A1 (UNIVERSITY OF MEDICINE AND DENTISTRY OF NEW JERSEY, published 2011)

Target: T1, YgiT (E. coli, UniProt Q46864 1-131)
T1 construct: YgiT with no tag named, co-expressed with H-MqsR from pET-MqsRYgiT (the operon cloned in pET28a) or induced from pBAD-YgiT in cells; also called YgiT of the H-MqsRYgiT complex; YgiT expressed from pBAD-YgiT
T1 sequence: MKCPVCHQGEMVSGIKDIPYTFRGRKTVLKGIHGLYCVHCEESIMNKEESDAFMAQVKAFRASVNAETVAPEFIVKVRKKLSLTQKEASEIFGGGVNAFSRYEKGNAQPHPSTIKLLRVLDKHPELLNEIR
Experiment: co-expression and co-purification on Ni-NTA agarose through the tag of H-MqsR

B1: N-terminal histidine-tagged MqsR (enzyme)
chain: MEKRTPHTRLSQVKKLVNAGQVRTTRSALLNADELGLDFDGMCNVIIGLSESDFYKSMTTYSDHTIWQDVYRPRLVTGQVYLKITVIHDVLIVSFKEK
notes: also called H-MqsR; His-MqsR; not shown: N-terminal histidine tag from pET28a
- binding result: binds
